Experimental data: patent publication US20070059820A1

B1: DC101 antibody expressed from CHO-S cells infected with Lenti-DC101-furin/2A14 (clone 7x-24) (antibody, from another filing, V domains shown)
VH: EVQLVETGGGLVQPGNSLKLSCATSGFIFSTTWMNWIRQTPGKRLEWLAQIEDKSNNYFISYSESVKGRFTISRDDSKSSVYLQMNNLKEEDTAIYYCSWKYRSNYYFDYWGQGVMVTVSS
VL: DIVLTQSPALAVSLEQRATISCKTSQNVDYYGISYLHWYQQKPGQQPKLLIYEGSNLASGIPARFSGSGSGTDFTLTIDPVEADDIVTYYCQQSKDYPYTFGAGTKLELKR

Experiments:
recombinant Flk-1 [1] = molecular target: recombinant Flk-1 (UniProt P35918); assay: ELISA on coated recombinant Flk-1, anti-rat IgG1 HRP; antibody at 4 ng/ml
recombinant Flk-1 [2] = molecular target: recombinant Flk-1 (UniProt P35918); assay: ELISA on coated recombinant Flk-1, anti-rat IgG1 HRP; antibody at 12 ng/ml
recombinant Flk-1 [3] = molecular target: recombinant Flk-1 (UniProt P35918); assay: ELISA on coated recombinant Flk-1, anti-rat IgG1 HRP; antibody at 37 ng/ml
recombinant Flk-1 [4] = molecular target: recombinant Flk-1 (UniProt P35918); assay: ELISA on coated recombinant Flk-1, anti-rat IgG1 HRP; antibody at 111 ng/ml
recombinant Flk-1 [5] = molecular target: recombinant Flk-1 (UniProt P35918); assay: ELISA on coated recombinant Flk-1, anti-rat IgG1 HRP; antibody at 333 ng/ml
recombinant Flk-1 [6] = molecular target: recombinant Flk-1 (UniProt P35918); assay: ELISA on coated recombinant Flk-1, anti-rat IgG1 HRP; antibody at 1000 ng/ml
recombinant Flk-1 [7] = molecular target: recombinant Flk-1 (UniProt P35918); assay: ELISA on coated recombinant Flk-1, anti-rat IgG1 HRP; antibody at 0 ng/ml (background)
recombinant Flk-1 [8] = molecular target: recombinant Flk-1 (UniProt P35918); assay: competition ELISA: antibody mixed with Flk-1, added to coated human VEGF, anti-Flk-1-HRP; antibody at 4 ng/ml
recombinant Flk-1 [9] = molecular target: recombinant Flk-1 (UniProt P35918); assay: competition ELISA: antibody mixed with Flk-1, added to coated human VEGF, anti-Flk-1-HRP; antibody at 12 ng/ml
recombinant Flk-1 [10] = molecular target: recombinant Flk-1 (UniProt P35918); assay: competition ELISA: antibody mixed with Flk-1, added to coated human VEGF, anti-Flk-1-HRP; antibody at 37 ng/ml
recombinant Flk-1 [11] = molecular target: recombinant Flk-1 (UniProt P35918); assay: competition ELISA: antibody mixed with Flk-1, added to coated human VEGF, anti-Flk-1-HRP; antibody at 111 ng/ml
recombinant Flk-1 [12] = molecular target: recombinant Flk-1 (UniProt P35918); assay: competition ELISA: antibody mixed with Flk-1, added to coated human VEGF, anti-Flk-1-HRP; antibody at 333 ng/ml
recombinant Flk-1 [13] = molecular target: recombinant Flk-1 (UniProt P35918); assay: competition ELISA: antibody mixed with Flk-1, added to coated human VEGF, anti-Flk-1-HRP; antibody at 1000 ng/ml
recombinant Flk-1 [14] = molecular target: recombinant Flk-1 (UniProt P35918); assay: competition ELISA: antibody mixed with Flk-1, added to coated human VEGF, anti-Flk-1-HRP; antibody at 0 ng/ml (no inhibitor)

Sequence of UniProt P35918 (P35918 20-762 limits assumed): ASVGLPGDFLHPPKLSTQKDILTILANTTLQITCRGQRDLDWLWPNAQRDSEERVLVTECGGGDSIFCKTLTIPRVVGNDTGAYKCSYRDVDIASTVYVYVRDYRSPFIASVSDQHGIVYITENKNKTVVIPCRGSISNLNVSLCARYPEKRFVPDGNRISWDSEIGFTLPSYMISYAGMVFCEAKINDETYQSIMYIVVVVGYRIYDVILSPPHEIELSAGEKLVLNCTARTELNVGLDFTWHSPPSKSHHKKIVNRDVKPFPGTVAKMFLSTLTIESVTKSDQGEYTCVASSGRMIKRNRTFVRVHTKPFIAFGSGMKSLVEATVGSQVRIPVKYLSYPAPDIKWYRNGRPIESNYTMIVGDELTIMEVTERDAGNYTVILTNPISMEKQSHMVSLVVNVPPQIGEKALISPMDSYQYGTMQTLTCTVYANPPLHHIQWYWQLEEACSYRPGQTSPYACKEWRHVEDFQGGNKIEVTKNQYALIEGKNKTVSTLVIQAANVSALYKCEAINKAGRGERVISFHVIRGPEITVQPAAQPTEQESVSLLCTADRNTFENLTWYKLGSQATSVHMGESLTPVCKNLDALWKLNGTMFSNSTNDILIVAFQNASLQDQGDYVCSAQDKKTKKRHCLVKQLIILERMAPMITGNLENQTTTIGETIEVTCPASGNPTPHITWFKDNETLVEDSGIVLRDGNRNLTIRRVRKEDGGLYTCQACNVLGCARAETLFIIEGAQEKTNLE

Molecule	ELISA signal (name and unit not given) (recombinant Flk-1 [1])	ELISA signal (name and unit not given) (recombinant Flk-1 [2])	ELISA signal (name and unit not given) (recombinant Flk-1 [3])	ELISA signal (name and unit not given) (recombinant Flk-1 [4])	ELISA signal (name and unit not given) (recombinant Flk-1 [5])	ELISA signal (name and unit not given) (recombinant Flk-1 [6])	ELISA signal (name and unit not given) (recombinant Flk-1 [7])	signal of Flk-1 bound to coated VEGF (name and unit not given) (recombinant Flk-1 [8])	signal of Flk-1 bound to coated VEGF (name and unit not given) (recombinant Flk-1 [9])	signal of Flk-1 bound to coated VEGF (name and unit not given) (recombinant Flk-1 [10])	signal of Flk-1 bound to coated VEGF (name and unit not given) (recombinant Flk-1 [11])	signal of Flk-1 bound to coated VEGF (name and unit not given) (recombinant Flk-1 [12])	signal of Flk-1 bound to coated VEGF (name and unit not given) (recombinant Flk-1 [13])	signal of Flk-1 bound to coated VEGF (name and unit not given) (recombinant Flk-1 [14])
DC101 antibody produced by a hybridoma	0.312	0.403	0.585	0.724	0.894	1.12	0.117	0.992	0.931	0.834	0.635	0.357	0.193	1.1
B1	0.274	0.412	0.486	0.616	0.993	1.14	0.129	1.04	0.945	0.826	0.43	0.237	0.184	1.07
